Measured values from paper PMC2034485.
pKd: −log10 of the molar value.

How the values were obtained:
[1] = target: GST-SAP (Homo sapiens) (UniProt Q9NS91); experiment: SPR
[2] = target: human Rad18 (Rad18 1–495) (human) (UniProt Q9NS91); experiment: SEC-MALS

Chain of GST-SAP (Homo sapiens) (Q9NS91 whole entry): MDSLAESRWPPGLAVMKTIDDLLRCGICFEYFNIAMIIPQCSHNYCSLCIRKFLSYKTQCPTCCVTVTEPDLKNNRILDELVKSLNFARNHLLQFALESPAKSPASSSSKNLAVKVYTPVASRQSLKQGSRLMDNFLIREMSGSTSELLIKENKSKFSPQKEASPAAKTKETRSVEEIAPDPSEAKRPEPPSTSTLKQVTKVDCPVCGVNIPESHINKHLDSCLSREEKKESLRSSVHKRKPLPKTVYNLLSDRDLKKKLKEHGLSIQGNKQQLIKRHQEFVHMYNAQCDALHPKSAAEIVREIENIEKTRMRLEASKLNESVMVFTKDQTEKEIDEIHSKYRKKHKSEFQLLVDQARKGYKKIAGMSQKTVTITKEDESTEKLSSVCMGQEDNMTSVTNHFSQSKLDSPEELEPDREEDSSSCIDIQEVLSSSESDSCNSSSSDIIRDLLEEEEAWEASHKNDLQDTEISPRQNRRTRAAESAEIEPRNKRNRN
Chain of human Rad18 (Rad18 1–495) (Q9NS91 whole entry): as above

| stoichiometry N [2] | Substance | pKd [1] |
| --- | --- | --- |
|  | TTTTTTTTTTTTTTTTTTTTTTTTTTTTTTTTTTTTTTTT [40T] | 5.96 |
| 2 | human Rad18 (Rad18 1–495) (from UniProt Q9NS91 1-495) (natural protein) |  |
|  | 40-mer dsDNA | 5.25 |
